According to patent publication US20240261446A1 (UNIVERSIT DE LI GE, published 2024):

Columns and labels:
[1] = target: T1, recombinant biotinylated CD38 (human, UniProt P28907 43-300, biotinylated (sites not given)); test: biolayer interferometry; biotinylated CD38 on streptavidin sensors; 1:1 binding model
T1 construct: also called biotinylated CD38 antigen; biotin-labelled recombinant CD38 protein
T1 sequence: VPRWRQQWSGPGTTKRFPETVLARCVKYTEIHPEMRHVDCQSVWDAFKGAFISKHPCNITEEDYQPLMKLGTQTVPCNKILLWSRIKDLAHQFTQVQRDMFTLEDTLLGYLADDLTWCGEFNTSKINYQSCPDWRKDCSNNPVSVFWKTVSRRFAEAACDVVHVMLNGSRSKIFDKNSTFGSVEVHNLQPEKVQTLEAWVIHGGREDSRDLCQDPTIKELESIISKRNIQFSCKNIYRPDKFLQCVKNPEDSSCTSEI

[2] = target: T1, recombinant biotinylated CD38; test: BLI
[3] = target: T1, recombinant biotinylated CD38; test: BLI, biotinylated CD38 on streptavidin sensors, 1:1 model
[4] = target: T2, human CD38 receptor expressed on cells (RPMI-8226 and other CD38+ cell lines) (human, UniProt P28907 1-300); test: saturation binding of the radiolabelled nanobody on CD38+ RPMI-8226 cells, 1 hour at 4 °C
T2 construct: Endogenous CD38 of human myeloma and lymphoma cell lines; also called CD38^+ RPMI-8226 cells
T2 sequence: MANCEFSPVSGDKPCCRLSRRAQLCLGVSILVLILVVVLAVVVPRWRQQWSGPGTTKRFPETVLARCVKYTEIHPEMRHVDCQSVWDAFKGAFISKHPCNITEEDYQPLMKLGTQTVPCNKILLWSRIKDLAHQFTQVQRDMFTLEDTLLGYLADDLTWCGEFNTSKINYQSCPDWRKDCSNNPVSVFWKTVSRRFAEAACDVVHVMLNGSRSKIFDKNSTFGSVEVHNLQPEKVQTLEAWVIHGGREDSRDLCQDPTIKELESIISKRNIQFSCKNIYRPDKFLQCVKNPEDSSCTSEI

[5] = target: T1, recombinant biotinylated CD38; test: BLI, biotinylated CD38 on streptavidin sensors, 10 to 150 nM conjugate, 1:1 model
Procedure: First, recombinant and biotinylated CD38 (1 μg/mL) was loaded on the surface of streptavidin-coupled sensors and washed using a PBS-based buffer in order to remove any unbound CD38. Then, biocytin was added to saturate the sensors and to avoid non-specific interactions during the subsequent association step. Afterwards, the nanobodies-PNA1 were diluted at concentrations and brought in contact with the CD38 coated sensors to monitor the association of the nanobodies to the receptors. Finally, the sensors were placed in a fresh buffer in order to measure the dissociation rate of the nanobodies-PNA1 from the receptors. Octet Data Analysis software version 8.0 was used for curve fitting and the determination of the binding parameters, including the KD, using a 1:1 binding model.

[6] = target: T1, recombinant biotinylated CD38; test: BLI, immobilised CD38 on SA sensors, OctetHTX, conjugate 100 to 20 nM
Procedure: Values are from a serial dilution of conjugate from 100 to 20 nM.

B1: anti-CD38 nanobody 2F8 (Nb2F8) with C-terminal hexahistidine tag (VHH)
VHH: QVQLVESGGGSVQAGGSLRLSCAASGYTDSDYIMAWFRQAPGKEREVVATIYIGGTYIHYADSVKGRFTISRDNAENTVYLQMNNLKPEDTAMYYCAATKWRPFISTRAAEYNYWGQGTLVTVSS
notes: Produced in E. coli WK6 with a His6 tag and also in an untagged form; The flow cytometry used the His-tagged form (anti-His detection); also called sdAb 2F8
B1 gave a Kd [1] of 0.734 nM, a Kd [2] of 1.46 nM and a Kd [3] of 0.73 nM.

B2: ^111In-DTPA-Nb2F8 (VHH)
VHH: B1 VHH
modifications: CHX-A''-DTPA on lysine epsilon-amino groups (positions not stated), chelating Indium-111
For B2, the Kd [4] was 16.7 nM.

B3: Nb2F8-PNA1 conjugate (VHH)
VHH: B1 VHH
modifications: the C-terminal GGGSS is continued by the peptide nucleic acid a-g-t-c-t-g-g-a-t-g-t-a-g-t-c (SEQ ID NO: 15) and then E-K(DOTA)-AEEA-E-NH2
notes: Made by Sortase A ligation of PNA1 to Nb2F8-FL-SR-His6 and purified by reverse IMAC; also called nanobody 2F8 coupled with the PNA1
B3 showed a Kd [5] of 13.4 nM.

B4: sdAb 2F8 conjugated to the bifunctional chelator DTPA (2F8-DTPA) (VHH)
VHH: B1 VHH
modifications: CHX-A''-DTPA conjugated to the free epsilon-amino groups of lysines (number and positions not stated)
notes: also called Nb2F8-DTPA conjugate
For B4, the Kd [6] was 1.6 nM, the koff [6] was 0.000412 s⁻¹ and the kon [6] was 258000 M⁻¹ s⁻¹.
